Measured values from publication PMC2763353.

Columns and labels:
Assay in all cases: EMSA
[1] = molecular target: Pax5(1-149) Q22A;GABPα(311-430) (human;, UniProt Q02548;Q00422 1-149;311-430, Q22A|)
[2] = molecular target: Pax5(1-149) WT;Ets-1(331-440) (human;murine, UniProt Q02548;P27577 1-149;331-440, |)
[3] = molecular target: Pax5(1-149) WT;GABPα(311-430);GABPβ1(1-157) (human;;, UniProt Q02548;Q00422;Q00420 1-149;311-430;1-157, ||)
[4] = molecular target: Pax5(1-149) Q22A;Ets-1(331-440) (human;murine, UniProt Q02548;P27577 1-149;331-440, Q22A|)
[5] = molecular target: Pax5(1-149) Q22A;Ets-1(280-440) (human;murine, UniProt Q02548;P27577 1-149;280-440, Q22A|)
Pax5(1-149) WT = Pax5(1-149) WT (human, UniProt Q02548 1-149)
Pax5(1-149) Q22A = Pax5(1-149) Q22A (human, UniProt Q02548 1-149, Q22A)
[6] = molecular target: GABPα(311-430);GABPβ1(1-157) (;, UniProt Q00422;Q00420 311-430;1-157, |)
Ets-1(280-440) = molecular target: T1, Ets-1(280-440) (murine, UniProt P27577 280-440)
T1 sequence: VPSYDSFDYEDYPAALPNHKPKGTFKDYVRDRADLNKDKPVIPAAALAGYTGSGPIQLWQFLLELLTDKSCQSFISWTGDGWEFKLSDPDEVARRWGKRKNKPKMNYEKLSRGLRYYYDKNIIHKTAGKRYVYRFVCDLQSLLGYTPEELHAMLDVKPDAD

[7] = molecular target: Pax5(1-149) WT;Ets-1(280-440) (human;murine, UniProt Q02548;P27577 1-149;280-440, |)
[8] = molecular target: Pax5(1-149) Q22A;GABPα(311-430);GABPβ1(1-157) (human;;, UniProt Q02548;Q00422;Q00420 1-149;311-430;1-157, Q22A||)
Ets-1(331-440) = molecular target: T2, Ets-1(331-440) (murine, UniProt P27577 331-440)
T2 sequence: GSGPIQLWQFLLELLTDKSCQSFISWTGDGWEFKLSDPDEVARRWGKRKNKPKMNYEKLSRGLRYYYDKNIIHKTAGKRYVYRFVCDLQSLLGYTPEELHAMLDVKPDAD

[9] = molecular target: Pax5(1-149) WT;GABPα(311-430) (human;, UniProt Q02548;Q00422 1-149;311-430, |)
Chain of Pax5(1-149) WT;GABPα(311-430) (Q02548 1-149, chain 1 of 2): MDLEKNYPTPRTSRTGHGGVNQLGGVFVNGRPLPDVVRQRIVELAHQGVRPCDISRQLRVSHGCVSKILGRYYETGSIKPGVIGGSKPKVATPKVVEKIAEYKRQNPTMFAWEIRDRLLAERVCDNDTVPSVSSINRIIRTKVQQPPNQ
Chain of Pax5(1-149) WT;GABPα(311-430) (Q00422 311-430, chain 2 of 2): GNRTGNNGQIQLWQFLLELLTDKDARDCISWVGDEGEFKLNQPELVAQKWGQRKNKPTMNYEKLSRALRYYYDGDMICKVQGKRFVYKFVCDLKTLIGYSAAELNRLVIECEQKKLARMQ

Chain of Pax5(1-149) WT;GABPα(311-430);GABPβ1(1-157) (Q02548 1-149, chain 1 of 3): as the sequence (Q02548 1-149, chain 1 of 2) above
Chain of Pax5(1-149) WT;GABPα(311-430);GABPβ1(1-157) (Q00422 311-430, chain 2 of 3): as the sequence (Q00422 311-430, chain 2 of 2) above
Chain of Pax5(1-149) WT;GABPα(311-430);GABPβ1(1-157) (Q00420 1-157, chain 3 of 3): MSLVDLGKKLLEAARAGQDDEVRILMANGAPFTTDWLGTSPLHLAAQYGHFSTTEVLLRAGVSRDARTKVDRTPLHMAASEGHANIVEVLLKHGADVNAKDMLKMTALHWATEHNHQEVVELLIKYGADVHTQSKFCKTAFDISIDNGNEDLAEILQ
Chain of Pax5(1-149) WT;Ets-1(280-440) (Q02548 1-149, chain 1 of 2, one chain of several): as the sequence (Q02548 1-149, chain 1 of 2) above
Chain of Pax5(1-149) WT;Ets-1(331-440) (Q02548 1-149, chain 1 of 2, one chain of several): as the sequence (Q02548 1-149, chain 1 of 2) above
Chain of Pax5(1-149) WT (Q02548 1-149): as the sequence (Q02548 1-149, chain 1 of 2) above
Chain of Pax5(1-149) Q22A;Ets-1(280-440) (Q02548 1-149 Q22A, chain 1 of 2, one chain of several): as the sequence (Q02548 1-149, chain 1 of 2) above, with Q22A counted along it
Chain of Pax5(1-149) Q22A (Q02548 1-149 Q22A): as the sequence (Q02548 1-149, chain 1 of 2) above, with Q22A counted along it
Chain of Pax5(1-149) Q22A;Ets-1(331-440) (Q02548 1-149 Q22A, one chain of several): as the sequence (Q02548 1-149, chain 1 of 2) above, with Q22A counted along it
Chain of Pax5(1-149) Q22A;GABPα(311-430) (Q02548 1-149 Q22A, chain 1 of 2): as the sequence (Q02548 1-149, chain 1 of 2) above, with Q22A counted along it
Chain of Pax5(1-149) Q22A;GABPα(311-430) (Q00422 311-430, chain 2 of 2): as the sequence (Q00422 311-430, chain 2 of 2) above
Chain of Pax5(1-149) Q22A;GABPα(311-430);GABPβ1(1-157) (Q02548 1-149 Q22A, chain 1 of 3): as the sequence (Q02548 1-149, chain 1 of 2) above, with Q22A counted along it
Chain of Pax5(1-149) Q22A;GABPα(311-430);GABPβ1(1-157) (Q00422 311-430, chain 2 of 3): as the sequence (Q00422 311-430, chain 2 of 2) above
Chain of Pax5(1-149) Q22A;GABPα(311-430);GABPβ1(1-157) (Q00420 1-157, chain 3 of 3): as the sequence (Q00420 1-157, chain 3 of 3) above
Chain of GABPα(311-430);GABPβ1(1-157) (Q00422 311-430, chain 1 of 2): as the sequence (Q00422 311-430, chain 2 of 2) above
Chain of GABPα(311-430);GABPβ1(1-157) (Q00420 1-157, chain 2 of 2): as the sequence (Q00420 1-157, chain 3 of 3) above

B1: P5-EBS probe (dsDNA)
DNA 1: TCGAAGGGCCACTGGAGCCCATCTCCGGCACGGC
DNA 2: TCGAGCCGTGCCGGAGATGGGCTCCAGTGGCCCT
- Kd [1]: 6.14 ± 5.38 nM
- Kd [2]: 0.89 ± 0.14 nM
- Kd [3]: 4.08 ± 0.38 nM
- Kd [4]: 7.89 ± 0.76 nM
- Kd [5]: 162 ± 44.3 nM
- Kd (Pax5(1-149) WT): 2.4 ± 0.47 nM
- Kd (Pax5(1-149) Q22A): 1.72 ± 0.37 nM
- Kd [6]: 234 ± 24.8 nM
- binding result (Ets-1(280-440)): no binding
- Kd [7]: 0.49 ± 0.05 nM
- Kd [8]: 3.36 ± 0.14 nM
- Kd (Ets-1(331-440)): 136 ± 5.29 nM
- Kd [9]: 17.8 ± 0.74 nM
